Measured values as given in US20190202925A1 (OPI VI IP HOLDCO, published 2019).

T1: monomeric human TNFR2 extracellular domain (human, UniProt P20333 23-257)
T1 construct: extracellular domain; Analyte in the Octet experiments; also called human TNFR2 ECD
T1 sequence (looked up): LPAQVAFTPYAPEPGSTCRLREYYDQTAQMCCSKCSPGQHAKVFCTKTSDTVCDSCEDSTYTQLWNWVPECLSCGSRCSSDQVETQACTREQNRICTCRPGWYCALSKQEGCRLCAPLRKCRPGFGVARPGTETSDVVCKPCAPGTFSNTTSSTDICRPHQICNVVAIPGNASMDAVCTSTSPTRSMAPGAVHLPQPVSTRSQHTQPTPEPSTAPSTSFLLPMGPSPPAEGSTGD

T2: monomeric cynomolgus TNFR2 extracellular domain (cynomolgus monkey, UniProt A0A2K5VET2 132-366)
T2 construct: extracellular domain; Analyte in the Octet experiments; also called cynomolgus TNFR2 ECD; Cyno TNFR2
T2 sequence: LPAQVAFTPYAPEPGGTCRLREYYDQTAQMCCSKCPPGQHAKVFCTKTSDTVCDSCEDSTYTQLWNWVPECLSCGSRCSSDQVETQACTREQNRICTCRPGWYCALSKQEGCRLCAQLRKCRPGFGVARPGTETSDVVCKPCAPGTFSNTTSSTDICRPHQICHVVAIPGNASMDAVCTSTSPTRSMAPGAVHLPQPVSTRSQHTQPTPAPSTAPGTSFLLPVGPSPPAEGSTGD

B1: chimeric SBT-001 (antibody, V domains shown)
VH: EVQLQQSGAELVKPGASVKISCKASGYTFTDYNMDWVKQSHGKSLEWIGDINPNYESTSYNQKFKGKATLTVDKSSSTAYMEVRSLTSEDTAVFYCARDKGWYFDVWGAGTTVTVSS
VL: ENVLTQSPAIMSASLGEKVTMSCRASSSVKNMYWYQQKSDASPKLWIYYTSNLAPGVPARFSGSGSGNSYSLTISSMEGEDAATYYCQQFTSSPYTFGGGTKLELK
notes: also called chSBT-001
B2: hSBT-002b (antibody, V domains shown)
VH: QVTLKESGPALVKPTQTLTLTCTFSGFSLSTSGMGVGWIRQPPGKALEWLAHIWWDDDKFYNPSLKSQLTISKDTSKNQVVLTMTNMDPVDTATYYCARITGTRYFDYWGQGTTVTVSS
VL: DVQMTQSPSSLSASVGDRVTITCKASQDINKFIAWYQQKPGKAPKLLIHYTSTLQPGIPSRFSGSGSGTDFTFTISSLQPEDIATYYCLQYGNLWTFGGGTKVEIK
notes: Humanized SBT-002; VH fused to human IgG1 Fc null, VL to human Ck; Tested as CHO supernatant
B3: hSBT-002d (antibody, V domains shown)
VH: QVTLKESGPALVKPTQTLTLTCTFSGFSLSTSGMGVGWIRQPPGKALEWLAHIWWDDDKFYNPSLKSQLTISKDTSKNQVVLTMTNMDPVDTATYYCARITGTRYFDYWGQGTTVTVSS
VL: DVQMTQSPSSLSASVGDRVTITCKASQDINKFIAWYQQKPGKAPKLLIHYTSTLQPGIPSRFSGSGSGRDYTFTISSLQPEDIATYYCLQYGNLWTFGGGTKVEIK
notes: as for B2
B4: hSBT-002c (antibody, V domains shown)
VH: QVTLKESGPALVKPTQTLTLTCTFSGFSLSTSGMGVGWIRQPPGKALEWLAHIWWDDDKFYNPSLKSRLTISKDTSKNQVVLTMTNMDPVDTATYYCARLTGTRYFDYWGQGTTVTVSS
VL: DVQMTQSPSSLSASVGDRVTITCKASQDINKFIAWYQQKPGKAPKLLIHYTSTLQPGIPSRFSGSGSGTDFTFTISSLQPEDIATYYCLQYGNLWTFGGGTKVEIK
notes: as for B2
B5: hSBT-002e (antibody, V domains shown)
VH: QVTLKESGPALVKPTQTLTLTCTFSGFSLSTSGMGVGWIRQPPGKALEWLAHIWWDDDKFYNPSLKSRLTISKDTSKNQVVLTMTNMDPVDTATYYCARLTGTRYFDYWGQGTTVTVSS
VL: DVQMTQSPSSLSASVGDRVTITCKASQDINKFIAWYQQKPGKAPKLLIHYTSTLQPGIPSRFSGSGSGRDYTFTISSLQPEDIATYYCLQYGNLWTFGGGTKVEIK
notes: as for B2
B6: hSBT-002a (antibody, V domains shown)
VH: QVTLKESGPALVKPTQTLTLTCTFSGFSLSTSGMGVGWIRQPPGKALEWLAHIWWDDDKFYNPSLKSRLTISKDTSKNQVVLTMTNMDPVDTATYYCARITGTRYFDYWGQGTTVTVSS
VL: DIQMTQSPSSLSASVGDRVTITCKASQDINKFIAWYQQKPGKAPKLLIYYTSTLQPGVPSRFSGSGSGTDFTFTISSLQPEDIATYYCLQYGNLWTFGGGTKVEIK
notes: as for B2
B7: chimeric SBT-003 Fc null (antibody, V domains shown)
VH: QIQLVQSGPELKKPGETVKISCKASGYTFTDYSMHWVKQAPGKGLKWMGWINTETGEPTYADDFKGRFAFSSETSTSTAYLQINNLKNDDTTTYFCATYYGSSYVPDYWGQGTSLTVSS
VL: DIVMTQSHKFMSTSVGDRVSITCKASQNVGTAVAWYQHKPGQSPKLLIYWTSSRHTGVPDRFTGSGSGTEFTLTISNVQSEDLADYFCHQYSDYPYTFGGGTKLEIK
notes: also called chSBT-003n
B8: chimeric SBT-002 Fc null (antibody, V domains shown)
VH: QVTLKESGPGILQPSQTLSLTCSFSGFSLSTSGMGVGWIRQPSGKGLEWLAHIWWDDDKFYNPSLKSQLTISKDTSRNQVFLKLTSVVTADTATYYCARLTGTRYFDYWGQGTTLTVSS
VL: DVQMTQSPSSLSASLGGKVTITCKASQDINKFIAWYQHKPGKGPRLLIHYTSTLQPGIPSKFSGSGSGRDYSFSISNLEPEDIATYYCLQYGNLWTFGGGTKLEIT
notes: also called chSBT-002n

What was measured:
[1] = molecular target: T1, monomeric human TNFR2 extracellular …; experiment: BLI (Octet Red 96), antibody captured on Fc biosensor, monomeric TNFR2 ECD in solution, 1:1 model
Protocol: (§1) Analysis of binding to the human and cynomolgus TNFR2 ECD was performed using an Octet Red 96 Instrument™ (ForteBio). […] The experiments were performed using five steps: (1) baseline acquisition (60 s); (2) antibody loading on to anti-human or anti-mouse Fc biosensors (120 s); (3) second baseline acquisition (60 s); (4) association of interacting monomeric human or cynomolgus TNFR2 ECD protein for kₒₙ measurement (120 s); and (5) dissociation of interacting monomeric human or cynomolgus TNFR2 ECD for koff measurement (240-3600 s).
(§2) The interacting monomeric human or cynomolgus ECD was used at 5-6 concentrations of a 3-fold concentration series. The data were analyzed using Octet Data Analysis Software 9.0™ (ForteBio) and fit to the 1:1 binding model. The equilibrium dissociation constants (Kd) were calculated by the ratio of […].

[2] = molecular target: T2, monomeric cynomolgus TNFR2 …; experiment: as above
Protocol: as §1, §2

[3] = molecular target: T1, monomeric human TNFR2 extracellular …; experiment: BLI (Octet Red 96), CHO supernatant antibody on anti-human Fc biosensor, 100 nM monomeric human TNFR2 ECD, 1:1 model
Protocol: Analysis of binding to human TNFR2 ECD was performed using Octet Red 96 instrument (ForteBio). The Octet systems use propriety BLI to analyze biomolecular interaction. CHO supernatants of hSBT-002a, hSBT-002b, hSBT-002c, hSBT-002d, hSBT-002e, and chSBT-002n were diluted to 20 ug/ml based on titers with expression media and immobilized using anti-human Fc biosensors. These were incubated with 100 nM monomeric human TNFR2 in PBS. The experiments comprised of 5 steps: (1) baseline acquisition (60 s); (2) antibodies loading onto anti-human Fc biosensor (120 s); (3) second baseline acquisition (60 s); (4) association of interacting monomeric human TNFR2 ECD protein for kₒₙ measurement (120 s); (5) Dissociation of interacting monomeric human TNFR2 ECD for koff measurement (300 s). Data were analyzed using Octet Data Analysis Software 9.0 (ForteBio) and fitted to the 1:1 binding model. Equilibrium dissociation constants (Kd) were calculated by the ratio of […].

[4] = molecular target: T1, monomeric human TNFR2 extracellular …; experiment: BLI (Octet Red 96), Human TNFR2 Kd (1-1)

Row | Binder | Kd [1] | Kd [2] | Kd [3] | koff [3] | Kd [4]
1 | B1 | 1.8 nM | 58.3 nM |  |  | 
2 | B2 |  |  | 2.44 nM | 0.000424 s⁻¹ | 
3 | B3 |  |  | 1.73 nM | 0.000301 s⁻¹ | 
4 | B4 |  |  | 2.27 nM | 0.000446 s⁻¹ | 
5 | B5 |  |  | 1.54 nM | 0.000268 s⁻¹ | 
6 | B6 |  |  | 4.89 nM | 0.000722 s⁻¹ | 
7 | B7 |  |  |  |  | 1 nM
8 | B8 |  |  | 1.92 nM | 0.000361 s⁻¹ | 2.5 nM
